Assay results as given in paper PMC10897201.

Key:
CD2 (human) = CD2 (human) (UniProt P06729)
[1] = target: surface Spycatcher fused to the hinge of hCD52 (human); assay: flow cytometry on cells; titration of purified Spytag-mClover3 on CHO-K1 cells transduced with surface Spycatcher; covalent coupling read by mClover3 fluorescence

Chain of UniProt P06729 (P06729 25-351): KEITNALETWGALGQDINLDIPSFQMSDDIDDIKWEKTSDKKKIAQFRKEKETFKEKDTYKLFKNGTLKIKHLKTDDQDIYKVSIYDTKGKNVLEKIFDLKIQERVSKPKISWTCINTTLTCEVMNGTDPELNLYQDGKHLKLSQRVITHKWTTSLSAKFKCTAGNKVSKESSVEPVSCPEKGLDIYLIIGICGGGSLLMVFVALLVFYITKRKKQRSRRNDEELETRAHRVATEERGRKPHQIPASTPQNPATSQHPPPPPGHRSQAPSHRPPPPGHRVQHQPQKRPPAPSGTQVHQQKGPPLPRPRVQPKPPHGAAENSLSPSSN

Row | fold improvement of antigen sensitivity, 4-1BB, 1G4 TCR T cells, with the CD2 ligand against pMHC alone (CD2 (human)) | fold improvement of antigen sensitivity, 4-1BB, D52N CAR T cells, with the CD2 ligand against pMHC alone (CD2 (human)) | fold improvement of antigen sensitivity, IL-2, 1G4 TCR T cells, with the CD2 ligand against pMHC alone (CD2 (human)) | fold improvement of antigen sensitivity, IL-2, D52N CAR T cells, with the CD2 ligand against pMHC alone (CD2 (human)) | Substance | concentration at saturation [1]
1 | 230 fold | 11 fold | 46 fold | 3.9 fold | full extracellular domain of CD58 fused to a C-terminal Spytag and Histag (from UniProt P19256 29-215) (ligand) | –
2 | – | – | – | – | purified mClover3 fused to Spytag | 1 µM
